Values of other authors, collected in patent publication US20240216555A1, “TARGETING AND TREATMENT OF CANCEROUS CELLS USING RADIOLABELED GRP78-BINDING AGENTS” (University of Kentucky Research Foundation, priority 2022, published 2024).
Where no end group is shown, it is not given here.

Experiments:
csGRP78 [1] = biological target: T1, csGRP78 (Homo sapiens, UniProt P11021); conditions: previously shown; cited from earlier work
csGRP78 [2] = biological target: T1, csGRP78; conditions: previously shown; cited from earlier work; remark: listed apart in the source

T1 sequence (P11021 19-654): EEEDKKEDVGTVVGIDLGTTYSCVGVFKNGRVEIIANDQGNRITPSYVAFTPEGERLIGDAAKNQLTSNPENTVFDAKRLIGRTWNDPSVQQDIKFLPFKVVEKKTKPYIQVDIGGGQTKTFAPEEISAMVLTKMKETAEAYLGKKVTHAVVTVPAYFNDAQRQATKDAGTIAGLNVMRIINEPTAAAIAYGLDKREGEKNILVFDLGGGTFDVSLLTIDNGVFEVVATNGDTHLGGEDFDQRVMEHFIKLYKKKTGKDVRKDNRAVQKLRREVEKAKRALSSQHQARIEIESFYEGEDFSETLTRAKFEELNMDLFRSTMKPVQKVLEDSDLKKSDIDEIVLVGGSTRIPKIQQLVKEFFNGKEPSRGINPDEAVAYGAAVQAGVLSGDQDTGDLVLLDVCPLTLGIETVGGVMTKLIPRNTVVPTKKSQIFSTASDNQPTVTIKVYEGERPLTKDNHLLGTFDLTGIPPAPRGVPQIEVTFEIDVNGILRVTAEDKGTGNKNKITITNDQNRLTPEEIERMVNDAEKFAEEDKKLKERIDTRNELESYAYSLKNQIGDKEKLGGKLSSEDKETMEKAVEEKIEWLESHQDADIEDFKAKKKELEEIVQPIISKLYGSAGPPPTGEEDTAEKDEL

## CTVALPGGYVRVC (also: cyclic (type not given here))
csGRP78 [1]
  translocation to the ER: translocate to the ER
csGRP78 [2]
  binding to csGRP78: bind to csGRP78
